Measurements as given in patent publication US20190263934A1.

Legend:
[1] = target: biotinylated hFcRn (human) (UniProt P55899); experiment: Biacore SPR, pH 6.0, bivalent fit
rFcRn (rat) [2] = target: rFcRn (rat) (UniProt P13599); experiment: Biacore SPR, pH 6.0, bivalent fit
Target sequence in this assay (P13599 23-298, form in doubt, chain 1 of 2): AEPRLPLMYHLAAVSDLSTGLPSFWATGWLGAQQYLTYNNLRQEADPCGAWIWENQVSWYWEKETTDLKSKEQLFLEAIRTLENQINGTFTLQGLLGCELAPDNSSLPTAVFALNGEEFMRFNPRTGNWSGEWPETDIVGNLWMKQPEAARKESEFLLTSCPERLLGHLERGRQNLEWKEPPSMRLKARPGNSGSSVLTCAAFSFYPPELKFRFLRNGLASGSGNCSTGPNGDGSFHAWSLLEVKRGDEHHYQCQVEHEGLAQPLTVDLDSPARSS
Target sequence in this assay (P07151 21-119, form in doubt, chain 2 of 2, further chain): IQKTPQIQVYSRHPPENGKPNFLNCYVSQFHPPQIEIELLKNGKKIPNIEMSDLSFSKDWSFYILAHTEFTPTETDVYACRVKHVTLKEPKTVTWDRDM

[3] = target: biotinylated hFcRn (human) (UniProt P55899); experiment: Biacore SPR, pH 7.4, single antibody concentration, steady state
rFcRn (rat) [4] = target: rFcRn (rat) (UniProt P13599); experiment: as above
Target sequence in this assay (P13599 23-298, form in doubt, chain 1 of 2): as the sequence (P13599 23-298, form in doubt, chain 1 of 2) above
Target sequence in this assay (P07151 21-119, form in doubt, chain 2 of 2, further chain): as the sequence (P07151 21-119, form in doubt, chain 2 of 2, further chain) above

[5] = target: Human CD16a (FcγRIIIa) V158 with C-terminal HPC4 tag (human) (UniProt P08637); experiment: Biacore SPR, captured HPC4-tagged FcγRIIIa-V158, steady-state fit
Sequence of Human CD16a (FcγRIIIa) V158 with C-terminal HPC4 tag (human) (P08637 17-208 F176V): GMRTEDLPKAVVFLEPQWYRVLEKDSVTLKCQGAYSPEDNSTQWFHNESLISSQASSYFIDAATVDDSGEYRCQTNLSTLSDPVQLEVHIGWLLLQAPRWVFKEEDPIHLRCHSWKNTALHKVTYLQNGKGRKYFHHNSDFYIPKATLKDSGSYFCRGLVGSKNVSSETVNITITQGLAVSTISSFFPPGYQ

[6] = target: biotinylated human FcRn (hFcRn; p51 subunit residues 24-297 with C-terminal Avi-tag, β2-m residues 21-119) (human) (UniProt P55899); experiment: Biacore SPR, pH 6.0, apparent affinity
[7] = target: biotinylated human FcRn (hFcRn; p51 subunit residues 24-297 with C-terminal Avi-tag, β2-m residues 21-119) (human) (UniProt P55899); experiment: Biacore SPR, human FcRn, pH 7.4, steady state
[8] = target: Human CD16a (FcγRIIIa residues 17-208, C-terminal HPC4 tag, valine at position 158) (human) (UniProt P08637); experiment: Biacore SPR, HPC4-captured FcγRIIIa-V158, pH 7.4
Sequence of Human CD16a (FcγRIIIa residues 17-208, C-terminal HPC4 tag, valine at position 158) (human) (P08637 17-208 F176V): as above

[9] = target: biotinylated human FcRn (hFcRn; p51 subunit residues 24-297 with C-terminal Avi-tag, β2-m residues 21-119) (human) (UniProt P55899); experiment: Biacore SPR, pH 7.4, steady state, 1000 nM antibody
[10] = target: biotinylated human FcRn (hFcRn; p51 subunit residues 24-297 with C-terminal Avi-tag, β2-m residues 21-119) (human) (UniProt P55899); experiment: Biacore SPR, Biotin CAPture, pH 7.4, 1000 nM antibody, steady state
[11] = target: biotinylated hFcRn (human) (UniProt P55899); experiment: SPR Biacore, pH 6.0
rFcRn (rat) [12] = target: rFcRn (rat) (UniProt P13599); experiment: SPR Biacore, pH 6.0
Target sequence in this assay (P13599 23-298 limits assumed, form in doubt, chain 1 of 2): as the sequence (P13599 23-298, form in doubt, chain 1 of 2) above
Target sequence in this assay (P07151 21-119 limits assumed, form in doubt, chain 2 of 2, further chain): as the sequence (P07151 21-119, form in doubt, chain 2 of 2, further chain) above

[13] = target: biotinylated hFcRn (human) (UniProt P55899); experiment: SPR Biacore, pH 7.4
rFcRn (rat) [14] = target: rFcRn (rat) (UniProt P13599); experiment: SPR Biacore, pH 7.4
Target sequence in this assay (P13599 23-298 limits assumed, form in doubt, chain 1 of 2): as the sequence (P13599 23-298, form in doubt, chain 1 of 2) above
Target sequence in this assay (P07151 21-119 limits assumed, form in doubt, chain 2 of 2, further chain): as the sequence (P07151 21-119, form in doubt, chain 2 of 2, further chain) above

[15] = target: biotinylated hFcRn (human) (UniProt P55899); experiment: SPR Biacore, pH 6.0; remark: listed apart in the source
[16] = target: biotinylated hFcRn (human) (UniProt P55899); experiment: SPR Biacore, pH 7.4, 1000 nM antibody
rFcRn (rat) [17] = target: rFcRn (rat) (UniProt P13599); experiment: SPR Biacore, pH 7.4, 1000 nM antibody
Target sequence in this assay (P13599 23-298 limits assumed, form in doubt, chain 1 of 2): as the sequence (P13599 23-298, form in doubt, chain 1 of 2) above
Target sequence in this assay (P07151 21-119 limits assumed, form in doubt, chain 2 of 2, further chain): as the sequence (P07151 21-119, form in doubt, chain 2 of 2, further chain) above

[18] = target: biotinylated cynomolgus FcRn (cynomolgus) (UniProt Q8SPV9); experiment: Biacore SPR, pH 6.0
[19] = target: biotinylated hFcRn (human) (UniProt P55899); experiment: Biacore SPR, pH 6.0
mouse FcRn (mouse) [20] = target: mouse FcRn (mouse) (UniProt Q61559); experiment: Biacore SPR, pH 6.0
[21] = target: biotinylated cynomolgus FcRn (cynomolgus) (UniProt Q8SPV9); experiment: Biacore SPR, pH 7.4, steady state
[22] = target: biotinylated hFcRn (human) (UniProt P55899); experiment: Biacore SPR, pH 7.4, steady state
mouse FcRn (mouse) [23] = target: mouse FcRn (mouse) (UniProt Q61559); experiment: Biacore SPR, pH 7.4, steady state
[24] = target: Human CD16a (FcγRIIIa) V158 with C-terminal HPC4 tag (human) (UniProt P08637); experiment: Biacore SPR, captured FcγRIIIa-V158, relative to WT of the same backbone
rFcRn (rat) [25] = target: rFcRn (rat) (UniProt P13599); experiment: BLI Octet, pH 6.0, purified antibody
Target sequence in this assay (P13599 23-298 limits assumed, form in doubt, chain 1 of 2): as the sequence (P13599 23-298, form in doubt, chain 1 of 2) above
Target sequence in this assay (P07151 21-119 limits assumed, form in doubt, chain 2 of 2, further chain): as the sequence (P07151 21-119, form in doubt, chain 2 of 2, further chain) above

[26] = target: biotinylated human FcRn (hFcRn; p51 subunit residues 24-297 with C-terminal Avi-tag, β2-m residues 21-119) (human) (UniProt P55899); experiment: Biacore SPR, Biotin CAPture of biotinylated human FcRn, pH 6.0
[27] = target: biotinylated human FcRn (hFcRn; p51 subunit residues 24-297 with C-terminal Avi-tag, β2-m residues 21-119) (human) (UniProt P55899); experiment: Biacore SPR, human FcRn, pH 6.0 (column 'Affinity, pH 6.0 (nM)')
[28] = target: biotinylated human FcRn (hFcRn; p51 subunit residues 24-297 with C-terminal Avi-tag, β2-m residues 21-119) (human) (UniProt P55899); experiment: Biacore SPR; second ratio column (inverse of c7)
[29] = target: biotinylated human FcRn (hFcRn; p51 subunit residues 24-297 with C-terminal Avi-tag, β2-m residues 21-119) (human) (UniProt P55899); experiment: Biacore SPR; pH 6.0 affinity (M^-1) over pH 7.4 steady state RU

Kd [1] [nM]	kon [1] [M⁻¹ s⁻¹]	Kd (rFcRn (rat) [2]) [nM]	koff (rFcRn (rat) [2]) [s⁻¹]	kon (rFcRn (rat) [2]) [M⁻¹ s⁻¹]	Steady State RU (pH 7.4) [3] [RU]	Steady State RU (pH 7.4) (rFcRn (rat) [4]) [RU]	Kd [5] [nM]	pH 7.4 RU [10] [RU]	Substance	other results
128	59000	8.4	0.0027	32000	9.8	55.1	878		mAb1 YETN (M252Y/T256E) (antibody)	
								91.7	mAb1 YDQF variant (M252Y/T256D/T307Q/N434F) (antibody)	Ka [6]: 1.11e+08 M⁻¹; Steady State RU (pH 7.4) [7]: 91.7 RU; FcγRIIIa Binding (RU) [8]: 93.2 RU; Steady State Binding, pH 7.4 (RU) [9]: 68.6 RU
5720		58							mAb1 T307Q (antibody)	Kd [11]: 5720 nM; Kd (rFcRn (rat) [12]): 58 nM; Steady State RU [13]: 6.6 RU; Steady State RU (rFcRn (rat) [14]): 31.3 RU; Kd [15]: > 3000 nM; Steady State RU [16]: 6.4 RU; Steady State RU (rFcRn (rat) [17]): 24.3 RU
218	19000	7.8	0.0004	5000	15.2	61.8	1620		mAb1 YEQN (M252Y/T256E/T307Q) (antibody)	koff [1]: 0.41 s⁻¹
342	143000	18	0.0012	65000	13.2	53.9	1040		mAb1 YTE (M252Y/S254T/T256E) (antibody)	koff [1]: 0.05 s⁻¹
3100		25							mAb1 M252Y (antibody)	Kd [11]: 3100 nM; Kd (rFcRn (rat) [12]): 25 nM; Steady State RU (rFcRn (rat) [14]): 50.5 RU; Kd [15]: > 3000 nM; Steady State RU (rFcRn (rat) [17]): 57.7 RU
								75.7	mAb1 YDWF variant (M252Y/T256D/T307W/N434F) (antibody)	Ka [6]: 1.66e+08 M⁻¹; Steady State Binding, pH 7.4 (RU) [9]: 71.8 RU
115	25000	5.1	0.0003	5000	19.8	65.2	1060		mAb1 YDQN (M252Y/T256D/T307Q) (antibody)	koff [1]: 0.28 s⁻¹
								69.7	mAb1 YDTY variant (M252Y/T256D/N434Y) (antibody)	Ka [6]: 9.01e+07 M⁻¹; Steady State Binding, pH 7.4 (RU) [9]: 65.4 RU
8740		111							mAb1 T307W (antibody)	Kd [11]: 8740 nM; Kd (rFcRn (rat) [12]): 111 nM; Steady State RU (rFcRn (rat) [14]): 21.9 RU; Kd [15]: > 3000 nM; Steady State RU (rFcRn (rat) [17]): 19.2 RU
									mAb2 YD (M252Y/T256D) (antibody)	Kd [18]: 120 nM; Kd [19]: 99 nM; Kd (mouse FcRn (mouse) [20]): 10 nM; Steady State RU (pH 7.4) [21]: 22 RU; Steady State RU (pH 7.4) [22]: 27 RU; Steady State RU (pH 7.4) (mouse FcRn (mouse) [23]): 394 RU; FcγRIIIa V158 Affinity Fold Change (fold relative to WT) [24]: 0.58
118	48000	5.2	0.0011	21000	15.9	66.1	896		mAb1 YTWN (M252Y/T307W) (antibody)	
8130	44000	141	0.006	56000					mAb1 T307E (antibody)	Kd [11]: 8130 nM; koff [11]: 0.298 s⁻¹; kon [11]: 43700 M⁻¹ s⁻¹; Kd (rFcRn (rat) [12]): 141 nM; koff (rFcRn (rat) [12]): 0.00603 s⁻¹; kon (rFcRn (rat) [12]): 55500 M⁻¹ s⁻¹; koff [1]: 0.3 s⁻¹; koff (rFcRn (rat) [25]): 0.00329 s⁻¹; Steady State RU [16]: 5.7 RU; Steady State RU (rFcRn (rat) [17]): 21.5 RU
272	193000	74	0.0066	91000	18.3	24.8	369		mAb1 LS (M428L/N434S) (antibody)	koff [1]: 0.05 s⁻¹
1780	84000	77	0.0117	157000	13.9	23.6	450		mAb1 AAA (T307A/E380A/N434A) (antibody)	koff [1]: 0.14 s⁻¹
								93.6	mAb1 YEQY variant (M252Y/T256E/T307Q/N434Y) (antibody)	Steady State RU (pH 7.4) [7]: 93.6 RU; Kd [26]: 4.8 nM; Kd [27]: 4.8 nM
									mAb2 DQ (T256D/T307Q) (antibody)	Kd [18]: 110 nM; Kd [19]: 97 nM; Kd (mouse FcRn (mouse) [20]): 24 nM; Steady State RU (pH 7.4) [21]: 11 RU; Steady State RU (pH 7.4) [22]: 14 RU; Steady State RU (pH 7.4) (mouse FcRn (mouse) [23]): 248 RU; FcγRIIIa V158 Affinity Fold Change (fold relative to WT) [24]: 1.05
6700		86							mAb1 T256D (antibody)	Kd [11]: 6700 nM; Kd (rFcRn (rat) [12]): 86 nM; Steady State RU (rFcRn (rat) [14]): 23.2 RU; Kd [15]: > 3000 nM; Steady State RU (rFcRn (rat) [17]): 30.4 RU
								77.1	mAb1 YTWY variant (M252Y/T307W/N434Y) (antibody)	Ka [6]: 1.06e+08 M⁻¹; Steady State Binding, pH 7.4 (RU) [9]: 75.1 RU
		113							mAb1 T256E (antibody)	Kd (rFcRn (rat) [12]): 113 nM; Steady State RU [13]: 4.5 RU; Steady State RU (rFcRn (rat) [14]): 17 RU; Kd [15]: > 3000 nM; Steady State RU [16]: 4.8 RU; Steady State RU (rFcRn (rat) [17]): 23 RU
								89.9	YTEKF benchmark (MST-HN variant; M252Y/S254T/T256E/H433K/N434F) (antibody)	Steady State RU (pH 7.4) [7]: 89.9 RU; Kd [26]: 14.8 nM; Kd [27]: 14.8 nM
169	53000	8.2	0.0013	16000	12.2	42.1	512		mAb1 MDWN (T256D/T307W) (antibody)	
								98.2	mAb1 YEWY variant (M252Y/T256E/T307W/N434Y) (antibody)	Steady State RU (pH 7.4) [7]: 98.2 RU
								54.4	mAb1 YTTY variant (M252Y/N434Y) (antibody)	Ka [6]: 1.2e+08 M⁻¹; Ratio (pH 7.4 RU / pH 6.0 affinity) [28]: 4.51e-07; Steady State Binding, pH 7.4 (RU) [9]: 54.1 RU; Kd [26]: 22.9 nM; Ratio (pH 6.0/pH 7.4) [29]: 2.22e+06
									mAb2 LS (M428L/N434S) (antibody)	Kd [18]: 210 nM; Kd [19]: 113 nM; Kd (mouse FcRn (mouse) [20]): 20 nM; Steady State RU (pH 7.4) [21]: 38 RU; Steady State RU (pH 7.4) [22]: 44 RU; Steady State RU (pH 7.4) (mouse FcRn (mouse) [23]): 285 RU; FcγRIIIa V158 Affinity Fold Change (fold relative to WT) [24]: 1.23
		5.9			9.7	56	1060		mAb1 YDTN (M252Y/T256D) (antibody)	
									mAb2 DW (T256D/T307W) (antibody)	Kd [18]: 99 nM; Kd [19]: 69 nM; Kd (mouse FcRn (mouse) [20]): 13 nM; Steady State RU (pH 7.4) [21]: 15 RU; Steady State RU (pH 7.4) [22]: 18 RU; Steady State RU (pH 7.4) (mouse FcRn (mouse) [23]): 257 RU; FcγRIIIa V158 Affinity Fold Change (fold relative to WT) [24]: 1.15
232	38000	9.5	0.0013	13000	10.7	39.1	600		mAb1 MDQN (T256D/T307Q) (antibody)	
								59.8	mAb1 MDWY variant (T256D/T307W/N434Y) (antibody)	Ka [6]: 8.4e+07 M⁻¹; Ratio (pH 7.4/pH 6.0) [28]: 7.02e-07; Steady State Binding, pH 7.4 (RU) [9]: 59 RU; Kd [26]: 18.1 nM; Ratio (pH 6.0/pH 7.4) [29]: 1.42e+06
